Assay results from the supplement of paper PMC11246515.
± gives the standard deviation of the averaged measurements.

Experiment: total protein half-life in vivo (active degradation + dilution); higher = more stable protein
[1] = E. coli NCM3722 delta-clpP delta-lon delta-hslV, growth: N-lim chemostat, doubling time 6 h
[2] = E. coli NCM3722 delta-clpP, growth: N-lim chemostat, doubling time 6 h
[3] = E. coli NCM3722 delta-lon, growth: N-lim chemostat, doubling time 6 h
[4] = E. coli NCM3722 delta-smpB, growth: N-lim chemostat, doubling time 6 h
[5] = wild type E. coli NCM3722, growth: C-lim chemostat, doubling time 3 h
[6] = wild type E. coli NCM3722, growth: C-lim chemostat, doubling time 6 h
[7] = wild type E. coli NCM3722, growth: C-lim chemostat, doubling time 12 h
[8] = wild type E. coli NCM3722, growth: N-lim chemostat, doubling time 6 h
[9] = wild type E. coli NCM3722, growth: N-lim chemostat, doubling time 12 h
[10] = E. coli NCM3722 delta-hslV, growth: N-lim chemostat, doubling time 6 h
[11] = wild type E. coli NCM3722, growth: P-lim chemostat, doubling time 6 h
[12] = wild type E. coli NCM3722, growth: P-lim chemostat, doubling time 12 h

| Sequence | total protein half-life in vivo [1] [h] | total protein half-life in vivo [2] [h] | total protein half-life in vivo [3] [h] | total protein half-life in vivo [4] [h] | total protein half-life in vivo [5] [h] | total protein half-life in vivo [6] [h] | total protein half-life in vivo [7] [h] | total protein half-life in vivo [8] [h] | total protein half-life in vivo [9] [h] | total protein half-life in vivo [10] [h] | total protein half-life in vivo [11] [h] | total protein half-life in vivo [12] [h] |
| --- | --- | --- | --- | --- | --- | --- | --- | --- | --- | --- | --- | --- |
| MRNIIKLALAGLLSVSTFAVAAESSPEALRIGYQKGSIGMVLAKSHQLLEKRYPESKISWVEFPAGPQMLEALNVGSIDLGSTGDIPPIFAQAAGADLVYVGVEPPKPKAEVILVAENSPIKTVADLKGHKVAFQKGSSSHNLLLRALRQAGLKFTDIQPTYLTPADARAAFQQGNVDAWAIWDPYYSAALLQGGVRVLKDGTDLNQTGSFYLAARPYAEKNGAFIQGVLATFSEADALTRSQREQSIALLAKTMGLPAPVIASYLDHRPPTTIKPVNAEVAALQQQTADLFYENRLVPKKVDIRQRIWQPTQLEGKQL | 5.27 ± 1.8 | 5.07 ± 0.72 | 4.66 ± 1.7 | 5.32 ± 0.25 | > 4 | 4.74 ± 0.1 | 8.06 | 5.64 | 12.52 ± 0.069 | – | – | – |
| MRNPTLLQCFHWYYPEGGKLWPELAERADGFNDIGINMVWLPPAYKGASGGYSVGYDSYDLFDLGEFDQKGSIPTKYGDKAQLLAAIDALKRNDIAVLLDVVVNHKMGADEKEAIRVQRVNADDRTQIDEEIIECEGWTRYTFPARAGQYSQFIWDFKCFSGIDHIENPDEDGIFKIVNDYTGEGWNDQVDDELGNFDYLMGENIDFRNHAVTEEIKYWARWVMEQTQCDGFRLDAVKHIPAWFYKEWIEHVQEVAPKPLFIVAEYWSHEVDKLQTYIDQVEGKTMLFDAPLQMKFHEASRMGRDYDMTQIFTGTLVEADPFHAVTLVANHDTQPLQALEAPVEPWFKPLAYALILLRENGVPSVFYPDLYGAHYEDVGGDGQTYPIDMPIIEQLDELILARQRFAHGVQTLFFDHPNCIAFSRSGTDEFPGCVVVMSNGDDGEKTIHLGENYGNKTWRDFLGNRQERVVTDENGEATFFCNGGSVSVWVIEEVI | 5.23 ± 0.094 | 4.16 ± 0.08 | 4.4 ± 0.36 | 4.26 ± 0.12 | 3.21 ± 0.87 | 6.29 ± 0.87 | 12.4 ± 0.27 | 4.2 ± 0.082 | 6.75 ± 0.24 | 4.036 ± 0.019 | 5.54 ± 0.59 | 13.4 ± 0.48 |
| MRPAGRSNNQVRPVTLTRNYTKHAEGSVLVEFGDTKVLCTASIEEGVPRFLKGQGQGWITAEYGMLPRSTHTRNAREAAKGKQGGRTMEIQRLIARALRAAVDLKALGEFTITLDCDVLQADGGTRTASITGACVALVDALQKLVENGKLKTNPMKGMVAAVSVGIVNGEAVCDLEYVEDSAAETDMNVVMTEDGRIIEVQGTAEGEPFTHEELLILLALARGESNPL [P0CG19] | 5.037 ± 0.026 | 4.44 ± 0.39 | 4.79 ± 0.48 | 4.48 ± 0.11 | – | – | 11.7 ± 3.8 | 3.47 ± 0.77 | 6.88 ± 0.082 | > 8 | 5.58 ± 0.93 | – |
| MRRANDPQRREKIIQATLEAVKLYGIHAVTHRKIATLAGVPLGSMTYYFSGIDELLLEAFSSFTEIMSRQYQAFFSDVSDAPGACQAITDMIYSSQVATPDNMELMYQLYALASRKPLLKTVMQNWMQRSQQTLEQWFEPGTARALDAFIEGMTLHFVTDRKPLSREEILRMVERVAG | 5.17 ± 0.91 | 4.84 | – | 4.87 ± 0.94 | 2.46 ± 0.18 | 4.6 | 5.18 | 5.11 | 8.57 | 4.98 ± 0.17 | 4.06 | 6.17 ± 0.89 |
| MRRELAIEFSRVTESAALAGYKWLGRGDKNTADGAAVNAMRIMLNQVNIDGTIVIGEGEIDEAPMLYIGEKVGTGRGDAVDIAVDPIEGTRMTAMGQANALAVLAVGDKGCFLNAPDMYMEKLIVGPGAKGTIDLNLPLADNLRNVAAALGKPLSELTVTILAKPRHDAVIAEMQQLGVRVFAIPDGDVAASILTCMPDSEVDVLYGIGGAPEGVVSAAVIRALDGDMNGRLLARHDVKGDNEENRRIGEQELARCKAMGIEAGKVLRLGDMARSDNVIFSATGITKGDLLEGISRKGNIATTETLLIRGKSRTIRRIQSIHYLDRKDPEMQVHIL [P0A9C9] | – | 4.69 ± 0.43 | 4.309 ± 0.04 | 4.27 ± 0.27 | 3.593 ± 0.019 | 5.39 ± 0.19 | 9.84 ± 0.62 | 4.51 ± 0.52 | 7.05 ± 0.25 | 4.84 ± 0.68 | 5.75 ± 0.21 | 12 ± 1.2 |
| MRRILSVLLENESGALSRVIGLFSQRGYNIESLTVAPTDDPTLSRMTIQTVGDEKVLEQIEKQLHKLVDVLRVSELGQGAHVEREIMLVKIQASGYGRDEVKRNTEIFRGQIIDVTPSLYTVQLAGTSGKLDAFLASIRDVAKIVEVARSGVVGLSRGDKIMR | 5.652 ± 0.022 | 6.01 ± 0.31 | 5.9 ± 0.55 | 5.37 ± 0.21 | 3.07 ± 0.047 | 5.93 ± 0.13 | 10.5 ± 0.55 | 5.72 ± 0.27 | 9.51 ± 0.46 | 5.93 ± 0.45 | 5.98 ± 0.1 | 12.4 ± 0.78 |
